In PMC8022203 (ACS infectious diseases, 2021):

Key:
[1] = tested on: CC(=O)Nc1ccc(/C=N/NC(N)=S)cc1; assay: purified protein; conditions: pH 8.0; 37.0 °C
[2] = tested on: CCN(CC)c1ccc2cc(-c3ccc(/C=N/NC(N)=S)s3)c(=O)oc2c1; assay: purified protein; conditions: pH 8.0; 37.0 °C

EthA (Mycobacterium tuberculosis H37Rv)
Km [1]: 153 ± 11 µM | Km [2]: 16 ± 2 µM
